The record followed here is patent US20210238271A1 (Janssen / Centocor, published 2021).

Experiment [1] concerns the target T1, recombinant human TNFα (human, UniProt P01375 77-233, 125I label in the receptor-blocking assay only).
T1 construct: also called huTNFα; tumor necrosis factor alpha
As to the kind of experiment: inhibition of 125I-TNFα binding to plate-coated p55-sf2, hybridoma supernatants. How it is done: (§1) Assay for Inhibition of TNF Binding to Receptor. […] Serial dilutions of the eight TNV cell supernatants were prepared in 96-well round-bottom plates using PBS/0.1% BSA as diluent. […] The mixture was preincubated for one hour at RT. […] After 2 hrs at RT, Optiplates were washed three times with PBS-Tween. […] of Microscint-20 was added and the cpm bound determined using the TopCount gamma counter.
A simple binding assay was done to determine whether the eight TNV mAbs contained in hybridoma cell supernatant were capable of blocking TNFα binding to receptor. The concentrations of the TNV mAbs in their respective cell supernatants were first determined by standard ELISA analysis for human IgG.

Experiment [2] deals with T1, recombinant human TNFα. Briefly: cell-based or functional assay.
Experiment [3] deals with T1, recombinant human TNFα. As to the kind of experiment: competition: 125I-TNFα (5 ng/ml) preincubated with hybridoma supernatant, then bound to plate-coated p55-sf2, gamma counting; blocked partner p55-sf2. The method, then:
Varying amounts of hybridoma cell supernatants containing known amounts of TNV mAb were preincubated with a fixed concentration (5 ng/ml) of ¹²⁵I-labeled TNFα. […] Although eight TNV mAb samples were tested in these experiments, for simplicity three of the mAbs that were shown by DNA sequence analyses to be identical to one of the other TNV mAbs (see Section 5.2.2) are not shown here. Each sample was tested in duplicate. The results shown are representative of two independent experiments.
as §1
A simple binding assay was done to determine whether the eight TNV mAbs contained in hybridoma cell supernatant were capable of blocking TNFα binding to receptor.

The target in experiment [4] is T2, human lymphotoxin (human, UniProt P01374 35-205, limits assumed).
T2 sequence (looked up): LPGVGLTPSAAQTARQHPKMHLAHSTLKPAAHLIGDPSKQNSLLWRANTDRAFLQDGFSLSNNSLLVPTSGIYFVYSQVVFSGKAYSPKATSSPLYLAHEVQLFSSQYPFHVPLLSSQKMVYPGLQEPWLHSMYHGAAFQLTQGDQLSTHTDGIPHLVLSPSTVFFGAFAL
As to the kind of experiment: not described.

B1: GenTNV148.26.12 (antibody, human IgG1, kappa, V domains shown)
VH: QVQLVESGGGVVQPGRSLRLSCAASGFIFSSYAMHWVRQAPGNGLEWVAFMSYDGSNKKYADSVKGRFTISRDNPKNTLYLQMNSLRAEDTAVYYCARDRGIAAGGNYYYYGMDVWGQGTTVTVSS
VL: EIVLTQSPATLSLSPGERATLSCRASQSVYSYLAWYQQKPGQAPRLLIYDASNRATGIPARFSGSGSGTDFTLTISSLEPEDFAVYYCQQRSNWPPFTFGPGTKVDIKR
notes: Totally human IgG1 kappa from hybridoma, tested as hybridoma supernatant; also called C420A
As for B1, in experiment [1], the “fold better at blocking TNF binding than TNV118 and TNV14” value was around 4 fold. In addition, the “neutralizing TNFα bioactivity” value in experiment [2] turned out to be 4 fold. For the same molecule, the “IC50 (read off the curve)” value in experiment [3] is around 4 ng/mL.

B2: GenTNV86.14.34 (antibody, human IgG1, kappa, V domains shown)
VH: QVQLVESGGGVVQPGRSLRLSCAASGFIFSSYAMHWVRQAPGNGLEWVAFMSYDGSNKKYADSVKGRFTISRDNPKNTLYLQMNSLRAEDTAVYYCARDRGIAAGGNYYYYGMDVWGQGTTVTVSS
VL: EIVLTQSPATLSLSPGERATLSCRASQSVYSYLAWYQQKPGQAPRLLIYDASNRATGIPARFSGSGSGTDFTLTISSLEPEDFAVYYCQQRSNWPPFTFGPGTKVDIKR
notes: Totally human IgG1 kappa from hybridoma, tested as hybridoma supernatant; Only the variable regions were compared; also called C417A
Turning to B2, the “fold better at blocking TNF binding than TNV118 and TNV14” value in experiment [1] is around 4 fold.

B3: golimumab (antibody, human IgG1, kappa, V domains shown)
VH: QVQLVESGGGVVQPGRSLRLSCAASGFIFSSYAMHWVRQAPGNGLEWVAFMSYDGSNKKYADSVKGRFTISRDNSKNTLYLQMNSLRAEDTAVYYCARDRGIAAGGNYYYYGMDVWGQGTTVTVSS
VL: EIVLTQSPATLSLSPGERATLSCRASQSVYSYLAWYQQKPGQAPRLLIYDASNRATGIPARFSGSGSGTDFTLTISSLEPEDFAVYYCQQRSNWPPFTFGPGTKVDIKR
notes: Fully human IgG1 (G1m[z] allotype), kappa; also called SIMPONI
On to B3, for which the binding result in experiment [4] is on record as “no binding”.
